# According to the supplement of paper PMC7877785:
# ± gives the uncertainty stated by the source.
# Test: self-splicing fitness, log relative to wild type (ln ratio); higher = more splicing; Tetrahymena group I intron in knt gene, E. coli kanamycin selection, DiMSum; sequences stand for … in CUCUCU…GGAGGGAAAAGUUAUCAGGCAUGCACCUGGUAGCUAGUCUUUAAACCAAUAGAUUGCAUCGGUUUAAAAGGCAAGACCGUCAAAUUGCGGGAAAGGGGUCAACAGCCGUUCAGUACCAAGUCUCAGGGGAAACUUUGAGAUGGCCUUGCAAAGGGUAUGGUAAUAAGCUGACGGACAUGGUCCUAACCACGCAGCCAAGUCCUAAGUCAACAGAUCUUCUGUUGAUAUGGAUGCAGUUCACAGACUAAAUGUCGGUCGGGGAAGAUGUAUUCUUCUCAUAAGAUAUAGUCGGACCUCUCCUUAAUGGGAGCUAGCGGAUGAAGUGAUGCAACACUGGAGCCGCUGGGAACUAAUUUGUAUGCGAAAGUAUAUUGAUUAGUUUUGGAGUACUCGUGGUCG
# Outline: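 DiMSum derived fitness as the error-weighted combination of fold changes across replicates, kanamycin versus no kanamycin, normalised to wild type. E. coli BL21(DE3) held the library, which randomised all eight P1ex-region intron nucleotides within the knt kanamycin-resistance gene on pET-22b(+). Six replicate transformations grew overnight at 37°C or 30°C on LB agar with or without 25 μg/mL kanamycin, also containing 100 μg/mL carbenicillin, 50 μM IPTG and 0.2% rhamnose, and pooled colonies were amplicon-sequenced on an Illumina HiSeq 2500.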
Sequence,self-splicing fitness (ln) (30 °C),self-splicing fitness (ln) (37 °C)
GCUGAGCAAUAUUACGAUGA,-1.11 ± 0.13,-1.07 ± 0.15
GCUGAGCAAUAUUACGCAAG,-3.22 ± 0.3,-2.73 ± 0.44
GCUGAGCAAUAUUACGCCGC,-2.62 ± 0.34,
GCUGAGCAAUAUUACGCGAA,,-2.91 ± 0.37
GCUGAGCAAUAUUACGCGAC,-3.36 ± 0.32,-1 ± 0.3
GCUGAGCAAUAUUACGCGCA,-1.72 ± 0.4,
GCUGAGCAAUAUUACGCGUU,-2.22 ± 0.15,-1.73 ± 0.22
GCUGAGCAAUAUUACGGCGA,-1.43 ± 0.16,-1.56 ± 0.2
GCUGAGCAAUAUUACGGGAC,-1.25 ± 0.13,-2.16 ± 0.22
GCUGAGCAAUAUUACGGUGC,-3.9 ± 0.3,-1.61 ± 0.22
GCUGAGCAAUAUUACGGUGU,-2.14 ± 0.077,-1.8 ± 0.091
GCUGAGCAAUAUUACGUAAA,-2.97 ± 0.19,-2.31 ± 0.17
GCUGAGCAAUAUUACGUAAG,-1.55 ± 0.12,-0.739 ± 0.16
GCUGAGCAAUAUUACGUAGA,-2.41 ± 0.2,-0.888 ± 0.21
GCUGAGCAAUAUUACGUAUU,-4.1 ± 0.28,-2.3 ± 0.22
GCUGAGCAAUAUUACGUCCC,-0.877 ± 0.092,-0.184 ± 0.11
GCUGAGCAAUAUUACGUCCG,-2.38 ± 0.23,-2.3 ± 0.31
GCUGAGCAAUAUUACGUGUC,-2.78 ± 0.18,-1.3 ± 0.16
GCUGAGCAAUAUUACGUUGG,-2.52 ± 0.26,-1.9 ± 0.28
GCUGAGCAAUAUUACGUUUC,-1.94 ± 0.18,-1.55 ± 0.2
GCUUAGCAAUAUUACGAAGC,-4.18 ± 0.31,-4.66 ± 0.36
GCUUAGCAAUAUUACGAGAG,-1.52 ± 0.23,-0.67 ± 0.2
GCUUAGCAAUAUUACGAGCG,-2.44 ± 0.26,-1.1 ± 0.16
GCUUAGCAAUAUUACGAUAC,-1.65 ± 0.2,0.185 ± 0.23
GCUUAGCAAUAUUACGAUGU,-0.306 ± 0.083,-0.00189 ± 0.11

Sequence,self-splicing fitness (ln) (30 °C),self-splicing fitness (ln) (37 °C)
GCUUAGCAAUAUUACGCAAG,,-2.44 ± 0.34
GCUUAGCAAUAUUACGCACG,-2.19 ± 0.092,-0.388 ± 0.1
GCUUAGCAAUAUUACGCCAC,-1.67 ± 0.32,-1.17 ± 0.45
GCUUAGCAAUAUUACGCUCU,-0.864 ± 0.12,-0.504 ± 0.12
GCUUAGCAAUAUUACGGACU,-0.304 ± 0.085,0.4 ± 0.093
GCUUAGCAAUAUUACGGCUA,-0.299 ± 0.24,-1.61 ± 0.27
GCUUAGCAAUAUUACGGGGA,-1.05 ± 0.11,-0.712 ± 0.12
GCUUAGCAAUAUUACGGUAC,-1.91 ± 0.14,-0.938 ± 0.19
GCUUAGCAAUAUUACGGUCC,-0.86 ± 0.17,0.242 ± 0.25
GCUUAGCAAUAUUACGUACU,-0.712 ± 0.1,-0.0558 ± 0.13
GCUUAGCAAUAUUACGUAGA,-0.53 ± 0.076,0.396 ± 0.093
GCUUAGCAAUAUUACGUAGG,-1.51 ± 0.11,-0.916 ± 0.14
GCUUAGCAAUAUUACGUAUA,-1.24 ± 0.072,-1.15 ± 0.094
GCUUAGCAAUAUUACGUAUU,-0.48 ± 0.12,0.669 ± 0.15
GCUUAGCAAUAUUACGUCGG,-1.89 ± 0.13,-1.75 ± 0.18
GCUUAGCAAUAUUACGUGCA,-1.11 ± 0.11,-0.319 ± 0.13
GCUUAGCAAUAUUACGUGGA,-2.06 ± 0.13,-0.531 ± 0.11
GCUUAGCAAUAUUACGUUCU,-1.03 ± 0.095,0.0827 ± 0.1
GCUUAGCAAUAUUACGUUUU,-1.68 ± 0.068,-0.474 ± 0.075
GGAAAGCAAUAUUACGAACU,-0.854 ± 0.1,0.214 ± 0.12
GGAAAGCAAUAUUACGAAUU,-1.96 ± 0.16,-1.4 ± 0.12
GGAAAGCAAUAUUACGACAG,-2.98 ± 0.14,-2.17 ± 0.22
GGAAAGCAAUAUUACGAGCA,-1.01 ± 0.078,-0.54 ± 0.083
GGAAAGCAAUAUUACGAGCC,-1.45 ± 0.12,-0.842 ± 0.17
GGAAAGCAAUAUUACGAUAU,-0.885 ± 0.076,-0.58 ± 0.1

Sequence,self-splicing fitness (ln) (30 °C),self-splicing fitness (ln) (37 °C)
GGAAAGCAAUAUUACGCCAC,-2.68 ± 0.33,
GGAAAGCAAUAUUACGCCUG,-1.73 ± 0.34,
GGAAAGCAAUAUUACGCGCU,-3.27 ± 0.38,-1.37 ± 0.26
GGAAAGCAAUAUUACGCUAA,-0.882 ± 0.25,-1.08 ± 0.27
GGAAAGCAAUAUUACGGACC,-2.35 ± 0.36,-1.44 ± 0.41
GGAAAGCAAUAUUACGGACU,-1.51 ± 0.27,-0.961 ± 0.28
GGAAAGCAAUAUUACGGAGA,-1.97 ± 0.27,-2.54 ± 0.26
GGAAAGCAAUAUUACGGCUC,-0.254 ± 0.13,0.018 ± 0.16
GGAAAGCAAUAUUACGGGUG,-1.91 ± 0.14,-1.78 ± 0.15
GGAAAGCAAUAUUACGUAUU,-1.25 ± 0.13,-1.45 ± 0.16
GGAAAGCAAUAUUACGUCCA,-1.37 ± 0.28,-0.294 ± 0.26
GGAAAGCAAUAUUACGUCUA,-0.626 ± 0.11,0.689 ± 0.14
GGAAAGCAAUAUUACGUGAU,-2.79 ± 0.086,-1.76 ± 0.089
GGAAAGCAAUAUUACGUGCA,-0.965 ± 0.075,0.36 ± 0.099
GGAAAGCAAUAUUACGUUUG,-3.17 ± 0.26,-1.79 ± 0.25
GGACAGCAAUAUUACGAAAU,-1.25 ± 0.11,-0.0392 ± 0.14
GGACAGCAAUAUUACGAAUG,-2.09 ± 0.17,-1.9 ± 0.22
GGACAGCAAUAUUACGACUG,-0.809 ± 0.12,-0.232 ± 0.17
GGACAGCAAUAUUACGAGUA,-2.92 ± 0.15,-1.79 ± 0.13
GGACAGCAAUAUUACGAUCU,-2.62 ± 0.18,-1.8 ± 0.2
GGACAGCAAUAUUACGCACC,-2.25 ± 0.25,-1.8 ± 0.38
GGACAGCAAUAUUACGCAUC,-3 ± 0.12,-0.76 ± 0.13
GGACAGCAAUAUUACGCCCC,-0.414 ± 0.41,
GGACAGCAAUAUUACGCUAC,-4.74 ± 0.27,-2.33 ± 0.24
GGACAGCAAUAUUACGCUAG,-1.85 ± 0.13,-0.798 ± 0.17

Sequence,self-splicing fitness (ln) (30 °C),self-splicing fitness (ln) (37 °C)
GGACAGCAAUAUUACGCUUC,-1.74 ± 0.19,
GGACAGCAAUAUUACGGACG,-0.636 ± 0.12,-0.327 ± 0.12
GGACAGCAAUAUUACGGAGG,-3.52 ± 0.15,-0.672 ± 0.096
GGACAGCAAUAUUACGGCGC,0.0232 ± 0.12,0.203 ± 0.13
GGACAGCAAUAUUACGGGCA,-0.731 ± 0.18,-0.477 ± 0.17
GGACAGCAAUAUUACGGUAG,-1.7 ± 0.061,-1.32 ± 0.073
GGACAGCAAUAUUACGGUUA,-0.28 ± 0.097,0.525 ± 0.11
GGACAGCAAUAUUACGUAAA,-0.529 ± 0.12,0.362 ± 0.16
GGACAGCAAUAUUACGUAAG,-0.165 ± 0.061,0.19 ± 0.079
GGACAGCAAUAUUACGUAGC,-0.679 ± 0.084,-0.618 ± 0.098
GGACAGCAAUAUUACGUAGG,-0.254 ± 0.053,-0.517 ± 0.063
GGACAGCAAUAUUACGUAGU,-1.61 ± 0.059,-1.15 ± 0.085
GGACAGCAAUAUUACGUCAA,-0.0403 ± 0.063,0.0855 ± 0.085
GGACAGCAAUAUUACGUCAC,-2.41 ± 0.17,-1.56 ± 0.2
GGACAGCAAUAUUACGUGAA,-0.306 ± 0.057,-0.142 ± 0.062
GGAGAGCAAUAUUACGAAGU,-3.48 ± 0.37,-1.33 ± 0.2
GGAGAGCAAUAUUACGAGGU,-3.34 ± 0.32,-3.01 ± 0.37
GGAGAGCAAUAUUACGAUGU,-1.92 ± 0.15,-1.74 ± 0.28
GGAGAGCAAUAUUACGCAGC,-1.26 ± 0.17,-2.78 ± 0.26
GGAGAGCAAUAUUACGGAUC,-1.91 ± 0.12,-0.404 ± 0.14
GGAGAGCAAUAUUACGGAUU,,-1.62 ± 0.22
GGAGAGCAAUAUUACGGCUA,-2.06 ± 0.32,-1.25 ± 0.18
GGAGAGCAAUAUUACGGGUU,-3.71 ± 0.24,-2.46 ± 0.19
